Results as given in PMC5614552 (Biochemistry and Biophysics Reports, 2016).

Molecular target: human CD34 protein (Fc tag; Sino Biological Incorporation) (Homo sapiens, UniProt P28906)
Test: SPR

Chain of human CD34 protein (Fc tag; Sino Biological Incorporation) (P28906 32-290): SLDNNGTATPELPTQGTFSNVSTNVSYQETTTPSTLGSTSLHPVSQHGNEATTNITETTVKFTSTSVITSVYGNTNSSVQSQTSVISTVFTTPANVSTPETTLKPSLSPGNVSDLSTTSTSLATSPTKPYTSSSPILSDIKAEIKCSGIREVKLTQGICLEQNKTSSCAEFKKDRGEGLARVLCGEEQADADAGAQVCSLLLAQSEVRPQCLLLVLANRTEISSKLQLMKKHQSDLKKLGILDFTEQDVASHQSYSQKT

B1: Chimeric QBEND/10 (antibody, V domains shown)
VH: QVQLEQSGPELVKPGASVKMSCKASGYTFTSYVIHWVKQKPGQGLEWLGYTNPYNDVTKYNEKFKFKATLTSDKQSTTAYMEFSSLTSEDSAVYYCARYGGLWLYAMDYWGQGTSVTVSS
VL: QLVLTQSSSASFSLGASAKLTCTLSSQHRTFTIEWYQQQPLKPPKYVMELRKDGSHSTGDGIPDRFSGSSSGADRYLSISNIQPEDEAIYICGVGNTIKEQFVYVFGGGTKVTVL
- Kd: 14.7 nM
- koff: 0.000262 s⁻¹
- kon: 17800 M⁻¹ s⁻¹
